# In US20260250320A1, “LIPIDATED PEPTIDE INHIBITORS OF INTERLEUKIN-23 RECEPTOR” (Janssen Pharmaceutica NV, priority 2023, published 2026):
# Target: interleukin-23 receptor (IL-23R) (UniProt Q5VWK5)
# Assay: cell-based or functional assay
substance,measurement,value
interleukin-23 (IL-23) (from UniProt Q9NPF7 20-189; P29460 23-328) (ligand),"EC90, IL23R reporter assay",10 ng/mL
